Values of other authors in patent US20030134789A1, “Compositions and methods for protecting tissues and cells from damage, and for repairing damaged tissues” (priority 2001, published 2003).

Settings: humans, an hour after ingesting 200 g of raw peanuts

B1: peanut agglutinin (PNA): dietary lectin found in the blood of humans after ingesting raw peanuts (protein, UniProt P02872 24-273, looked up)
Galactose-binding lectin: AETVSFNFNSFSEGNPAINFQGDVTVLSNGNIQLTNLNKVNSVGRVLYAMPVRIWSSATGNVASFLTSFSFEMKDIKDYDPADGIIFFIAPEDTQIPAGSIGGGTLGVSDTKGAGHFVGVEFDTYSNSEYNDPPTDHVGIDVNSVDSVKTVPWNSVSGAVVKVTVIYDSSTKTLSVAVTNDNGDITTIAQVVDLKAKLPERVKFGFSASGSLGGRQIHLIRSWSFTSTLITTTRRSIDNNEKKIMNMASA
level in the blood: 1000 to 5000 ng/mL
